Measured values from PMC7733947, “The Key Glycolytic Enzyme Phosphofructokinase Is Involved in Resistance to Antiplasmodial Glycosides” (mBio, 2020).

Test system: Nc1ncnc2c1ncn2[C@@H]1O[C@H](COP(=O)(O)O)[C@@H](O)[C@H]1O
Assay: purified protein

Substance	Km [mM]
PfHAD1 (Plasmodium falciparum 3D7)	4.11 ± 0.88
PfHAD2 (Plasmodium falciparum 3D7)	4.09 ± 0.55
